Assays:
[1] = target: human progesterone receptor B isoform (hPRB) (human) (UniProt P06401); experiment: cell-based or functional assay
ER = target: T1, ER (Homo sapiens, UniProt P03372); experiment: CAT reporter assay ER/ERE2-TATA-CAT in HeLa cells; type: cell-based; settings: 3 μg SRC-1, estradiol 2×10^−8 M
T1 construct: expressed in transfected cells; host or cells: HeLa
T1 sequence (P03372 1-595): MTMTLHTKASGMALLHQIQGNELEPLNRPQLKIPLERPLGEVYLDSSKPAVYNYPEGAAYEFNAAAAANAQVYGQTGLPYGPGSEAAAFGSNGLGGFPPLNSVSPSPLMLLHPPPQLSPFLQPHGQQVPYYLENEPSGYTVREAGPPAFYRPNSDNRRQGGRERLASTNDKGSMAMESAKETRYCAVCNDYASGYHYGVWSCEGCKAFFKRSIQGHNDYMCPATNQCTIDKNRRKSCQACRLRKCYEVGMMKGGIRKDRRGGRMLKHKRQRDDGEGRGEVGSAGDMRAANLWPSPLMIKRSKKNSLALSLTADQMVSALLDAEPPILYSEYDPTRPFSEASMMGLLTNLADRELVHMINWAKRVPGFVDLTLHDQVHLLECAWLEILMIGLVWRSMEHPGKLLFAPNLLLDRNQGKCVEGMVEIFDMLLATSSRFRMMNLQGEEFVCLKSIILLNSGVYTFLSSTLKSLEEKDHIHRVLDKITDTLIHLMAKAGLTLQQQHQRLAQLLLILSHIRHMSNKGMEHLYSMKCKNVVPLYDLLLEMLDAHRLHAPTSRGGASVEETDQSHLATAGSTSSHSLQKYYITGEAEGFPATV
Method: (§1) Biol. 13, 6501-6508), Sp1 and Sp1-tk-CAT (Courey, A. J. and Tjian, R. (1988), Cell 55, 887-898), CREB and CRE-tk-CAT (Chrivia, J. C. et al., (1993), Nature 365, 855) and GAL4VP16 and 17mer-tk-CAT (Baniahmad, A. et al., (1992), EMBO J. 11, 1015-1023) have been previously described and the above references are incorporated herein by reference in their entirety, including any drawings.
(§2) Lipofectin (GibcoBRL) was selected for transfection of Hela cells.
(§3) HeLa cells were cotransfected with 0.5 μg of cDNAs encoding various steroid receptors indicated and 5 μg of their cognates HREs containing reporters, including PR/PRE2-TATA-CAT, ER/ERE2-TATA-CAT, GR/PRE2-TATA-CAT, TR-/DR4-tk-CAT and RXR/DR1-tk-CAT, along with 3 μg of SRC-1 or empty expression vector. Cells were then treated with their corresponding ligands (PR:R5020, ER:estradiol, GR:dexamethasone, TR:Triac, RXR:9-cis retinoic acid) at a concentration of 2×10^−8M. The CAT activity of the reporter was determined using 14 μg of protein extract.

GR = target: T2, GR (Homo sapiens, UniProt P04150); experiment: CAT reporter assay GR/PRE2-TATA-CAT in HeLa cells; type: cell-based; settings: 3 μg SRC-1, dexamethasone 2×10^−8 M
T2 construct: expressed in transfected cells; host or cells: HeLa
T2 sequence (P04150 1-777): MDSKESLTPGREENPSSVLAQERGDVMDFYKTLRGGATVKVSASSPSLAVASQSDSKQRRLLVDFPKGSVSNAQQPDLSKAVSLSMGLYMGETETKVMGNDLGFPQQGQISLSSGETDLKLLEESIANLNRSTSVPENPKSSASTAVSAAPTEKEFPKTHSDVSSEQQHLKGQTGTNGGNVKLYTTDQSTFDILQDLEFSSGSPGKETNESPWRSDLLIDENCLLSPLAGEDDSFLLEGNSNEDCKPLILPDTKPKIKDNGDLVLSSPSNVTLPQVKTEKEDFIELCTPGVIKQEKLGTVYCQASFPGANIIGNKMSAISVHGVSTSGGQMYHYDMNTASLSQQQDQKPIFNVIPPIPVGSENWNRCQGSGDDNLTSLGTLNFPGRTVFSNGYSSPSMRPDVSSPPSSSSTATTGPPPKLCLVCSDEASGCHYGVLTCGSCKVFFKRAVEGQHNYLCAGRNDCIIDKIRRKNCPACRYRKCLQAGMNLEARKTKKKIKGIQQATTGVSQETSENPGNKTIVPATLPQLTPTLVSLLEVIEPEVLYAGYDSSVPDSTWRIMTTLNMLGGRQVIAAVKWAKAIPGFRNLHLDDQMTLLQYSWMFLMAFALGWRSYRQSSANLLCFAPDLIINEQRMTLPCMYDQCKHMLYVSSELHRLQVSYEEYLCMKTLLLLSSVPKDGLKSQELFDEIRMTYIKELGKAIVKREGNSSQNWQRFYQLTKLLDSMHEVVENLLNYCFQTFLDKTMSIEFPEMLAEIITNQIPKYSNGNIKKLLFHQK
Method: as §1, §2, §3

E2F = target: T3, E2F (Homo sapiens, UniProt Q01094); experiment: CAT reporter assay E2F/E2F-tk-CAT in HeLa cells; type: cell-based
T3 construct: expressed in transfected cells; host or cells: HeLa
T3 sequence (Q01094 whole entry): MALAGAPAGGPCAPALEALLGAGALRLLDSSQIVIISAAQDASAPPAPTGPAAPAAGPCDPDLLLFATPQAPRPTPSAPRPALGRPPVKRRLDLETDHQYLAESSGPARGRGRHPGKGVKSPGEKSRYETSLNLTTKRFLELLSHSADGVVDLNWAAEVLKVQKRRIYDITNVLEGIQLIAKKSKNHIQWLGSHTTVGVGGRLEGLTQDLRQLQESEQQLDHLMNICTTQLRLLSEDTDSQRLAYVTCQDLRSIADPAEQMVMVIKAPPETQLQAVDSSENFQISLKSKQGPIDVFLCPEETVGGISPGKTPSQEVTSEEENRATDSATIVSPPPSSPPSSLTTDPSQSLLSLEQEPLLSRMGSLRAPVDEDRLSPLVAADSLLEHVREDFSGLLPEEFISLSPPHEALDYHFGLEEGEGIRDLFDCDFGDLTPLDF
Method: as §2
(§4) The CAT activity of the reporter was determined.

CREB = experiment: CAT reporter assay CREB/CRE-tk-CAT in HeLa cells, with and without forskolin; type: cell-based; settings: without and with 1 μM forskolin
Method: as §2, §4

TR = target: T4, TR (Homo sapiens, UniProt P10828); experiment: CAT reporter assay TR/DR4-tk-CAT in HeLa cells; type: cell-based; parameters: expressed in transfected cells; settings: 3 μg SRC-1, Triac 2×10^−8 M
T4 sequence (P10828 1-461): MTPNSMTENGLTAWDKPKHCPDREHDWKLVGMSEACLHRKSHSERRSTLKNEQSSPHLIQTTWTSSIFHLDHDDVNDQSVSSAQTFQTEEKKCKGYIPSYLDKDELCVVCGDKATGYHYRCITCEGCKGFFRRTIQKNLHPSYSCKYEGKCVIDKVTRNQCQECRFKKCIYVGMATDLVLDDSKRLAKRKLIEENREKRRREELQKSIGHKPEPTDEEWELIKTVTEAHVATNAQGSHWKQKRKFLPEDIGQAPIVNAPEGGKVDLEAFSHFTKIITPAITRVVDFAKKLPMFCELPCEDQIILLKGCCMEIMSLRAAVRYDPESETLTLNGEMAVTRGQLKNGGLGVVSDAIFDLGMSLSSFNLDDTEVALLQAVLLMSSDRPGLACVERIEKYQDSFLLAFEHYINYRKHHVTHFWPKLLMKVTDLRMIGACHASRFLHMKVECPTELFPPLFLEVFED
Method: as §1, §2, §3

B1: steroid receptor coactivator-one (SRC-1), full-length (protein)
chain: MSIPRVNPSVNPSISPAHGVARSSTLPPSNSNMVSTRINRQQSSDLHSSSHSNSSNSQGSFGCSPGSQIVANVALNKGQASSQSSKPSLNLNNPPMEGTGISLAQFMSPRRQVTSGLATRPRMPNNSFPPNISTLSSPVGMTSSACNNNNRSYSNIPVTSLQGMNEGPNNSVGFSASSPVLRQMSSQNSPSRLNIQPAKAESKDNKEIASTLNEMIQSDNSSSDGKPLDSGLLHNNDRLSDGDSKYSQTSHKLVQLLTTTAEQQLRHADIDTSCKDVLSCTGTSNSASANSSGGSCPSSHSSLTARHKILHRLLQEGSPSDITTLSVEPDKKDSASTSVSVTGQVQGNSSIKLELDASKKKESKDHQLLRYLLDKDEKDLRSTPNLSLDDVKVKVEKKEQMDPCNTNPTPMTKATPEEIKLEAQSQFTADLDQFDQLLPTLEKAAQLPGLCETDRMDGAVTSVTIKSEILPASLQSATARPTSRLNRLPELELEAIDNQFGQPGTGDQIPWTNNTVTAINQSKSEDQCISSQLDELLCPPTTVEGRNDEKALLEQLVSFLSGKDETELAELDRALGIDKLVQGGGLDVLSERFPPQQATPPLIMEERPNLYSQPYSSPFPTANLPSPFQGMVRQKPSLGTMPVQVTPPRGAFSPGMGMQPRQTLNRPPAAPNQLRLQLQQRLQGQQQLIHQNRQAILNQFAATAPVGINMRSGMQQQITPQPPLNAQMLAQRQRELYSQQHRQRQLIQQQRAMLMRQQSFGNNLPPSSGLPVQTGNPRLPQGAPQQFPYPPNYGTNPGTPPASTSPFSQLAANPEASLANRNSMVSRGMTGNIGGQFGTGINPQMQQNVFQYPGAGMVPQGEANFAPSLSPGSSMVPMPIPPPQSSLLQQTPPASGYQSPDMKAWQQGAIGNNNVFSQAVQNQPTPAQPGVYNNMSITVSMAGGNTNVQNMNPMMAQMQMSSLQMPGMNTVCPEQINDPALRHTGLYCNQLSSTDLLKTEADGTQQVQQVQVFADVQCTVNLVGGDPYLNQPGPLGTQKPTSGPQTPQAQQKSLLQQLLTE
fold induction of PRE2-TATA-CAT reporter activity over the hormone-induced receptor activity (HeLa cells, R5020) [1]: 14 fold | reversal of hER squelching of hPR-mediated CAT reporter activity (HeLa cells) [1]: 16 fold | stimulation of PR transactivation at the highest concentration of SRC-1 (2 µg), CAT reporter [1]: 5 fold | effect on ER transcriptional activity (ER): enhance | effect on GR transcriptional activity (GR): enhance | effect on E2F transcriptional activity (E2F): did not alter | effect on basal and forskolin-stimulated transcriptional activities of CREB (CREB): did not affect | effect on TR transcriptional activity (TR): enhance

Source: US6380373B1, “Steroid receptor coactivator compositions and methods of use” (Baylor College of Medicine, priority 1995, dated 2002)
